Experimental data taken from the nanobody polyreactivity screen of Harvey et al. (2022).

Experiment: yeast display, Sf9 membrane polyspecificity reagent, FACS + sequencing; frameworks hold sequencing errors
Procedure, shortened: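 Polyreactivity labels are assigned by the sorting gate from which each nanobody was recovered. The gates were low and high (top ~1%), set on anti-HA fluorescence for expression and streptavidin fluorescence for reagent binding. Before sorting, galactose-induced (36–48 hours) yeast display cells were stained for 1 hour at 4 °C with 10% biotinylated, detergent-solubilized Sf9 membrane reagent.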

Sequence | polyreactivity (PSR sort gate)
QVQLVESGGGLVQAGGSLRLSCAASGFIFVGNAMGWYRQAHGKERELVAAISRRGSRTFYADSVKARFTISRDNAKNTVYLQMNSLKPEETAVYYCAAEGYYVTPFDYWGQGTQVTVSS | high polyreactivity
QVQLVESGGGLVQAGGSLRLSCAASGSTFTLYAMGWYRQAPGNERELVASITASDGSTSYADSVKGRFTISRDNAKNTVYLQMNSLKPEDTAVYYCAARYRVRGISYYYWGQGTQVTVSS | low polyreactivity
QVQLVESGGGLVQAGGSLRLSCAASGSTFYTYDMGWYRQAPGKERELVAAISRRDGITYYADSVKGRFTISRDYATNTVYLQMNSLNPEDSAVYYCAAEDAYRYYDFDYWGQGTQVTVSS | low polyreactivity
QVQLVESGGGLVQAGGSLRLSCAASGFIFGNNDMGWNRQAPGKERELVAGITWSGSSTYYADSVKGRFTISRDNAKNTVYLQMNSLKPEDTAVYYCARDGNDGYEYWGQGTQVTVSS | high polyreactivity
QVQLVESGGGLVQAGGSLRLSCAASGFTFAWYTMGWYRQEPGKESELVAAISWSGGSTYYADSVKGRFTISPDNANKTVYLQMNILKPEDTAVYYCAVTTGLTRYEYWGQGTQVTVSS | high polyreactivity
QVQLVESGGGLVQAGGSLRLSCAASGFTLGWYVMGWYRQAPGKERELVAGISWSGGNTYYADSVKGRFTISRDNAKNTVYLQMHSLKPEDTAVYYCNADRTYPDYDYWGQGTQVTVSS | low polyreactivity
QVQLVESGGGLVQAGGSLRLSCAASGSIFVVNARGWYRQAPGKERELVAAITKNGGRTYYADSVKGRFTISRDNAKNTVYLQMNSLKPEDTAVYYCNTVKGHGGYYGYDYWGQGTQVSVSS | high polyreactivity
QVQLVESGGGLVQAGGSLRLSCAASGSTFVIYAMGWYRQAPGKERELVAAIRRRGGSTYYADSVKGRFTISRDNAKNTVYLQMNSLKPEDSAVYYCATAGQGAFWGQGTQVTVSS | high polyreactivity
QVQLVDSGGGLVQAGGSLRLSCAASGSILGAKDMGWFRQAPGKERELVATITWNGGGTSYADSVKGRFTISRDNAKNTVYLQMNSLKAEDTAVYYFNALGRDSQALYRYRLVGEFGYWGQGSQVTVSS | low polyreactivity
QVQLVESGGGLVQAGGSLRLSCAASGSTFYIYGMGWYRQAPGKERELVARISSGGSTYADSVKGRFTISRDNAKNTVYLQMNSLKPEDTAVYYCAAAAARTYRRYRYEGYYYWGQGTQVTVSS | high polyreactivity
QVQLVESGGGLVQAGGSLRLSCAASGSIFTTNAMGWYRQAPEKERELVATITWSDGSTYYADSVKGRFTISRDNAKNTVYLQMNSLKPEDTAVYYCATPYKRYFYKGGDYWGQGTQVSVSS | low polyreactivity
QGQLVESGGGLVQAGGSLRLSCAASGSTVPQYAMGWYRQAPGKERELVAVITDSGGSTYYADSVKGRFTISRDNAKNTVYLQMNSLKPEDTAVYYCAARRWSPRSGLGYGYWGQGTQVTVSS | high polyreactivity
QVQLVESGGGLVQAGGSLRLSCAASGLTFSGNVMGCYIQAPGKERELVAAIDRSGGSTYYADSVKGRFTISRDNAKNTVYLQMNSLKPEDTAVYYCAVSSYPNHSRSWDDYWGQGTQVTVSS | low polyreactivity
QVQLQESGGGLVQAGGSLRLSCAASGTITFAAYMGWYRQAPGKEREYVASIGYGATTYYADSEKGRFTISRDNANNTVYLPMNSLKPGDTAVYYCAVDRSPQYRYLYYWGQGTQVTVCS | high polyreactivity
QVQLVESGGGLVQAGCILRLSCAASGRTFHLNAMGWYIQAPGKEREMVAAITNSGGRTSYADSVKVRFTISRDNAKNTVYIQMNSLKPEDTAVYYFNVEVTYSSGKYYYWGQGTQVTVSS | low polyreactivity
QVQLVESGGGLVQAGGSLRLSCAASGSIIYPYAMGWYRQAPGKERELVASINWRTGSTYYADSVKGRFTISRDNAKNTVYLQMNSLKPEDTAVYYCAARLDYYTGFDYWGQGTQVTVSS | low polyreactivity
QVQLVESGGGLVQAGGSLRLTCAASGLTFYFYTMGWYRQAPGKERELVAAIRSAGRTNYADSVKGRFTISRDNAKNTVYLQMNSLKPEDTAVYYCAAISPGYYRIVWYDYWGQGTQVTVSS | high polyreactivity
QVQLVESGGGLVQAGGSLRLSSSASGSTFWYYVRGRYRQAPGKERELVAAISTRGDSTYYADSVKGRFTISRDNAKNSVYLQINSLKPEDTAVYYCAKSRQSSGRVRFDYWGQGTEVTVSS | low polyreactivity
QVQLVESGGGLVQAGGSLRLSCAASGFIFFGYAMGWYRQAPGKERELVAAITSGGSTYYADSVKGRFTISRDNAKNTVYLQMNSLKPEDTAVYYCAASRVRYSYGYPYYYWGQGTQVTVSS | high polyreactivity
QVQLVESGGGLVQAGGSHRLSCAASGSIFVVYAMGWYRQAPGKERELVASIRTGGSTNYADSVKGRFTISRDNAKNTVYLQMNSLKPEDTAVYYCAAASWNSNRHYYVARYYYWGQGTQVTVSS | high polyreactivity
QVQLVESGGGLVQAGGSLRLSCAASGIIFRGYAMGWDRQAPGQERELVAVIDRSGARTNYADSVTGRFTISRDNAKNTVYLQMNSLKPEDTAVYYCAASGVRAYSGLGYWGQGSQVTVSS | high polyreactivity
QVQLVESGGGLVQAGGSLRLSCAASGTYFNAMGWYRQAPGKERELVAAISLSGGRTYYADSVKGRFTISRDNAKNTVYLQMNSLKPEDTAVYYCAASNRGATRRQVNYWGQGTQVTVSS | high polyreactivity

Sequence | polyreactivity (PSR sort gate)
QVQLVESGGGLVQAGGSLRLSCAASGSIFYFNAMGWYRQAPGKERELVAAINSGGSTYYADSVKGRFTISRDNAKNTVYLQMNSLKPEDTAVYYCAAVKVDYYITMYYWGQGTQVTVSS | high polyreactivity
QVQLVESGGGLVQAGGSLRLSCAASGRIFFANAMGWYRQAPGKEWELVGAISRGGRTNYADSVKGRFTISRDNAKNTVYLQMNSLKPEDTAVYYFAAVRLSHAPSYYLYGMAYWGHGTQVTVSS | low polyreactivity
QVQLEESGGGLVQAGGSLRLSCAASGYTFFTNVMGWYRQAPGKERELVATITTGGSTYADSVKGRFTISRDNAKNTVYLQMNSLKPEDTAVYYCAVDALTGAWLGGYPYWADGYDYWGQGTQVTVSS | low polyreactivity
QVQLVESGGGLVQAGGRLRLSCAASGSIFVKYAMGCYRHAPGKERELVATIRRSGTSTYYADSVKGRFTISRDNAMNTVYLQMNSLKPEDPAVYYCAALRSLLYRTYGYWGQGTQVTVSS | low polyreactivity
QVQLVESGGGLVQAGGSLRLSCAASGSIFNIYAMGWYRQAPGKERELVATITGIADSTYYADSVKGRFTISRDNAKNTVYLQMNSLKPEDTAVYYCNADPSGVFFYSLEFDYWGQGTQVTVSS | low polyreactivity
QVQLVESGGGLVQAGGSLRLSCAASGFIFHGYTMGWYRQAPGKEMDMVARISFTGGSTYYADSVKGRFTISRDNAKNTVYLQMNSLKPEDTAVYYCAATYSSYWARYYYWGQGTQVTVSS | high polyreactivity
QVQLVESGGGLVQAGGSLRLSCAASGITFWYYAMGWYRQAPGKERELVARIRRSGGSTYYADSVKGRFTISRDNAKNTVYLQMNSLKPEDTAVYYCAAEPRWTAVYQGAERFYYWGQGTQVTVSS | high polyreactivity
QVQLVESGGGLVQAGGSLRLSCAASGLIFYWNTMGWYRQAPGKERELVAYISGGGGRTYYADSVKGRFTISRDNAKNTVYLQMNSLKPEDTAVYYCAAKLYGYRSGYYYWGQGTQVTVSS | high polyreactivity
QVQLVESGGGLVQAGGSLRLSCAASGRIFFTNAMGWYRQAPGKERELVAAISKYGARTYYADSVKGRFTISRDKAKNTVYLQMNSLKPEDTAVYYCAADVSVSGYYYWGQGTQVTVSS | high polyreactivity
QVQLVESGGGLVQAGGSLRLSCAASGYIFWWNAMGWYRQAPGKERELVAGISWSGSPTYYADSVKGRFTITRDNAKNTVYLQMNSLKPEDTAVYYCNAAAITLYDYDYWGQGTQVTVSS | low polyreactivity
QVQLVESAGGLVQAGGSLRISCAASGRNFSTNAMGWYRQAPGKEMELVAAITSRGGSTYYADSVKGRFTISRDNAKNTVYLQMNSLIPEDPAVYYCAVDPLYYKTHYGTLGYYYWGQGTQVTVSS | low polyreactivity
QVQLVESGGGLVQAGGSLRLSCAASGITFPGNAMGWYRQAPGTERELVAVIRKSGTSTYYADSVKGRFTISRDNAKNTVYLQMNSLKPEDTAVYYCAAGGPSTLDDYWGQGTQVTVSS | low polyreactivity
QVQLVESGGGLVQAGGSLRLSCAASGSIFKNYAMGWYRQAPGKERELVAAITSGGRTYYADSVKGRFTISRDNAKNTVYLQMNSLKPEDTAVYYCAALGRYGYYYWGQGTQVTVSS | high polyreactivity
QVQLVESGGGLVQAGGSLRLSCAASGRTFYGNVMGWYRQAPGKEREWVAVISWSSGSTSYADSVKGRFTISRDNAKNTVYLQMNSLKPEDTAVYYCAGTTRPPRYRQYDSDYYYWGQGTQVTVSS | low polyreactivity
QVQLVESGGGLVQAGGSLRISCAASGLTFTDYAIGWYRQAPGKERELVAGIWDGGSTYYADSVKGRFTISRDNAKNTVYLQMNSLKAEDTAVYSCAVRTSRLLREFGYSYWGQGTQVTVSS | high polyreactivity
QVQLVESGGGLVQAGGSLRLSCAASGRTFRHYAMGWYRQAPGKERELVAAISGSGGRTYYADSVKGRFTISRDNAKNTVYLQMNSLKPEDTAVYYCNAYTWTYGEYEYWGQGTQVTVSS | high polyreactivity
QVQLVESGGGLVQAGGSLRLSCAASGFTFKYYAMGWYRQAPGKERELVARISWSGGSTYYADSVKGRFTISRDNAKNTFYLQMNSLKPEDTAVYYCNTDVGYGFDYWGQGTQVTVSS | high polyreactivity
HVQLVESGGGLVQAGRSLRFSCAASGSIFLYNAMGWYRQAPGKERELVAAISKSGGSTYYADSVKGRFTISRDNAKNTVYLQMNSLKPEDTAVYYCAAGYGRRIRYCSEYDYWGQGTQVTVSS | low polyreactivity
QVQLVESGGGVQAGCSLRLSCAASGRTFVPYGMGWYRQAPGKERELVAAISSIGDSTSYADSVKGRFTISRDNAKNTVYLQMNSLKPEDSAVYYCADVTWYDEYDSWGKGTQVTVSS | low polyreactivity
QVQLVESGGGLVQAGGSLRLSCAASGSTFVYYAMGWYRQAPGKERELVAAIRNGDGTNYADSVKGRFTISRDNAKNTVYLQMNSLKPEDTAVYYCAAPQGEYFYVYEFDYWGQGTQVTVSS | low polyreactivity
QVQLVESAGGLVQAGGSLRLSCAASGSIFKDYAMGWYRQAPGKERELVAAITSGTSTTYADSVKGRFTISRDNAKYTVYLPMNSLKPDDTAVYYCAADYYLRKTRFESWGQGTQVTVSP | low polyreactivity
